B1: KIH format bivalent MW07 (MW07/KIH) (antibody, V domains shown)
VH: EVQLVESGGGLVQPGGSLRLSCAASGFTFSSYWMSWVRQAPGKGLEWVANIKQDASEKYYLDSLKGRFTISRDNAKNSLYLQMNSLRAEDTAVYYCARDLGILWFGDYPWGQGTLVTVSS
VL: DIQMTQSPSSLSASVGDRVTITCRASQGISNSLAWYQQKPGKAPKLLLYAASTLESGVPSRFSGSGSGTDFTLTISSLQPEDFATYYCQQFYSTPRTFGQGTKVEIK
notes: also called knob-in-hole format bivalent mAb; copies: + + 2
B2: KIH format bivalent MW05 (MW05/KIH) (antibody, V domains shown)
VH: EVQLVQSGAEVKKPGSSVKVSCKASGGTFSSYAISWVRQAPGQGLEWMGRIIPIFGSSNYAQKFQGRVTITADESTSTAYMELSSLRSEDTAVYYCAESPLGGGSGYSVSWFDPWGQGTLVTVSS
VL: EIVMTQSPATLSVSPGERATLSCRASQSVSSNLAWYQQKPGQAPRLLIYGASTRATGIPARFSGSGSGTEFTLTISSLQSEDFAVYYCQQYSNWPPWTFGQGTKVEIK
notes: as for B1

Target: Recombinant SARS-CoV-2 S trimer protein (ACRO Biosystems SPN-C52H9) (SARS-CoV-2, Wuhan-Hu-1 (reference spike), UniProt P0DTC2)
Assay: SPR
Settings: both partners purified

Row | Binder | koff
1 | B1 | 3.02e-05 s⁻¹
2 | B2 | 8.52e-05 s⁻¹

Source: paper PMC8948278, “Antibody-dependent enhancement (ADE) of SARS-CoV-2 pseudoviral infection requires FcγRIIB and virus-antibody complex with bivalent interaction” (Communications Biology, 2022)
